Results on one substance are retold here after PMC4159253.

The assay deals with F241A IgG1 Fc fragment (human). Put plainly: crystal structure.

By stoichiometry N is commonly meant the number of molecules, sites or subunits per partner or assembly.

For “F241A IgG1 Fc fragment (domain or fragment)”, the stoichiometry N is 2.
